In patent US20260216244A1 (published 2026):

T1: EGFR L858R peptide on HLA-A*03:01 (human)
T1 peptide: KITDFGRAK


Biological target: T1, EGFR L858R peptide on HLA-A*03:01
Experiment: multimer staining

| Binder | binding result |
| --- | --- |
| TCR4 (TCR, V domains shown) Valpha: QKEVEQNSGPLSVPEGAIASLNCTYSDRGSQSFFWYRQYSGKSPELIMSIYSNGDKEDGRFTAQLNKASQYVSLLIRDSQPSDSATYLCAVSATGFQKLVFGTGTRLLVSP Vbeta: QVTQNPRYLITVTGKKLTVTCSQNMNHEYMSWYRQDPGLGLRQIYYSMNVEVTDKGDVPEGYKVSRKEKRNFPLILESPSPNQTSLYFCASTADRGGNEQFFGPGTRLTVL | recognises |
| TCR3 (TCR, V domains shown) Valpha: ENVEQHPSTLSVQEGDSAVIKCTYSDSASNYFPWYKQELGKRPQLIIDIRSNVGEKKDQRIAVTLNKTAKHFSLHITETQPEDSAVYFCAADMRFGAGTRLTVKP Vbeta: GVTQTPKFRILKIGQSMTLQCTQDMNHNYMYWYRQDPGMGLKLIYYSVGAGITDKGEVPNGYNVSRSTTEDFPLRLELAAPSQTSVYFCASSYSRDSIREQYFGPGTRLTVT | recognises |
